Measured values taken from US20150337019A1 (MANUKAMED HOLDINGS LIMITED PARTNERSHIP, published 2015).
Where two headings read alike, the source gives them in different places.

What was measured:
Experiment in all cases: cell-based or functional assay
[1] = target: T1, Cathepsin B from bovine spleen (bovine, UniProt P07688 80-332)
[2] = target: T1, Cathepsin B from bovine spleen; remark: listed apart in the source
[3] = target: T1, Cathepsin B from bovine spleen; remark: listed apart in the source
[4] = target: T1, Cathepsin B from bovine spleen; remark: listed apart in the source

Cathepsin B inhibition test, 2 mM peptide [1]	Cathepsin B inhibition test, 2 mM peptide [3]	Binder	further results
164	–	Ac-SSKSNNRHNNND-OH [Ac-SSKSNNRHNNND-OH]	–
131	–	Ac-SSKSNNRHNN-OH [Ac-SSKSNNRHNN-OH]	–
–	–	Ac-Lys-His-OH [Ac-KH-OH]	Cathepsin B inhibition test, 2 mM peptide [2]: 230
–	119	Ac-SSKS-OH [Ac-SSKS-OH]	–
–	67.6	Ac-SKLH-OH (also: MGO-modified, site not given here) [MGO-modified Ac-SKLH-OH]	–
110	–	Ac-SSKSNNRHNNND-OH (also: MGO-modified, site not given here) [MGO-modified Ac-SSKSNNRHNNND-OH]	–
–	146	Ac-SKLH-OH [Ac-SKLH-OH]	–
–	122	Ac-HSSKLH-OH [Ac-HSSKLH-OH]	–
102	–	Ac-SSKSNNRH-OH (also: MGO-modified, site not given here) [MGO-modified Ac-SSKSNNRH-OH]	–
–	165	Ac-HSSK-OH [Ac-HSSK-OH]	–
–	107	Ac-SSKS-OH (also: MGO-modified, site not given here) [MGO-modified Ac-SSKS-OH]	–
–	–	Ac-QNKHNN-OH [Ac-QNKHNN-OH]	Cathepsin B inhibition test, 2 mM peptide [2]: 168
107	–	Ac-SSKSNN-OH (also: MGO-modified, site not given here) [MGO-modified Ac-SSKSNN-OH]	–
–	–	Ac-KHNN-OH [Ac-KHNN-OH]	Cathepsin B inhibition test, 2 mM peptide [2]: 129
–	–	Ac-PFKISIHL-OH [Ac-PFKISIHL-OH]	Cathepsin B inhibition test, 2 mM peptide [4]: 144
–	102	Ac-HSSKLH-OH (also: MGO-modified, site not given here) [MGO-modified Ac-HSSKLH-OH]	–
–	–	Ac-PFKISIHL-OH (also: MGO-modified, site not given here) [MGO-modified Ac-PFKISIHL-OH]	Cathepsin B inhibition test, 2 mM peptide [4]: 28.1
–	–	Ac-QNKH-OH (also: MGO-modified, site not given here) [MGO-modified Ac-QNKH-OH]	Cathepsin B inhibition test, 2 mM peptide [2]: 97.8
129	–	Ac-SSKSNN-OH [Ac-SSKSNN-OH]	–
–	–	Ac-KISIHL-OH (also: MGO-modified, site not given here) [MGO-modified Ac-KISIHL-OH]	Cathepsin B inhibition test, 2 mM peptide [4]: 73.2
104	–	Ac-SSKSNNRHNN-OH (also: MGO-modified, site not given here) [MGO-modified Ac-SSKSNNRHNN-OH]	–
125	–	Ac-SSKSNNRH-OH [Ac-SSKSNNRH-OH]	–
–	–	Ac-QNKHNN-OH (also: MGO-modified, site not given here) [MGO-modified Ac-QNKHNN-OH]	Cathepsin B inhibition test, 2 mM peptide [2]: 51.3
